According to paper PMC4072347 (Biochemistry, 2014):

biological target: human methemoglobin (metHb) (human, UniProt P69905;P68871); experiment: SEC
Sequence (P69905 whole entry, chain 1 of 2): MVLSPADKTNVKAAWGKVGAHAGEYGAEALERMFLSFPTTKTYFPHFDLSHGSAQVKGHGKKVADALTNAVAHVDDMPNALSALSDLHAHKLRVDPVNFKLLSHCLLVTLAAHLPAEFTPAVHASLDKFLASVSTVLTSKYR
Sequence (P68871 whole entry, chain 2 of 2): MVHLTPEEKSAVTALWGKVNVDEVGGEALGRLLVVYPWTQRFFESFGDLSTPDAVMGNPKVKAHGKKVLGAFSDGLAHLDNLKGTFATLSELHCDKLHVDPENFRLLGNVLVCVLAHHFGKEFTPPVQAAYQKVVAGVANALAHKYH

| Binder | stoichiometry N |
| --- | --- |
| IsdH NEAT1 (IsdH^N1), residues Ala86-Leu229 (domain or fragment) ADESLKDAIKDPALENKEHDIGPREQVNFQLLDKNNETQYYHFFSIKDPADVYYTKKKAEVELDINTASTWKKFEVYENNQKLPVRLVSYSPVPEDHAYIRFPVSDGTQELKIVSSTQIDDGEETNYDYTKLVFAKPIYNDPSL | 1 IsdH NEAT domain per metHb (alpha/beta dimer) |
| IsdH NEAT2 (IsdH^N2), residues Gln321-Asn464 (domain or fragment) QQYPPADESLQDAIKNPAIIDKEHTADNWRPIDFQMKNDKGERQFYHYASTVEPATVIFTKTGPIIELGLKTASTWKKFEVYEGDKKLPVELVSYDSDKDYAYIRFPVSNGTREVKIVSSIEYGENIHEDYDYTLMVFAQPITN | 1 IsdH NEAT domain per metHb (alpha/beta dimer) |
| IsdB^N1-L, IsdB residues Leu125-Asn339 (NEAT 1 domain with the linker) (domain or fragment) LNQELREAIKNPAIKDKDHSAPNSRPIDFEMKKKDGTQQFYHYASSVKPARVIFTDSKPEIELGLQSGQFWRKFEVYEGDKKLPIKLVSYDTVKDYAYIRFSVSNGTKAVKIVSSTHFNNKEEKYDYTLMEFAQPIYNSADKFKTEEDYKAEKLLAPYKKAKTLERQVYELNKIQDKLPEKLKAEYKKKLEDTKKALDEQVKSAITEFQNVQPTN | < 1 IsdB^N1-L per metHb |
